In patent US20130164256A1 (AbbVie / Abbott, published 2013):
Substitutions are numbered along the chain they refer to. Read-outs that look alike come from different tables or passages of the source.

B1: hMAK195-AM20 (antibody, V domains shown)
VH: EVQLVESGGGLVQPGGSLRLSCAASGFTFSNYGVTWVRQAPGKGLEWVSMIWADGSTHYASSVKGRFTISRDNSKNTLYLQMNSLRAEDTAVYYCAREWQHGPVAYWGQGTLVTVSS
VL: DIQMTQSPSSLSASVGDRVTITCKASQLVSSAVAWYQQKPGKAPKLLIYWASTRHTGVPSRFSGSGSGTDFTLTISSLQPEDFATYYCQQHYSTPFTFGQGTKLEIKR
B2: hMAK195-AM13 (antibody, V domains shown)
VH: B1 VH with T35S, M50L, W52R, A53G, H58D, V63L, Q100H
VL: B1 VL with L28A
B3: hMAK195-AM24 (antibody, V domains shown)
VH: B1 VH with T35E, M50G, S61D, S62T, G65S
VL: B1 VL with R54L, S93R
B4: hMAK195-AM26 (antibody, V domains shown)
VH: B1 VH with T35S, S61D, S62T, V104L
VL: B1 VL with K24R, S93R
B5: hMAK195-AM19 (antibody, V domains shown)
VH: B1 VH with T35S, V63L, V104A
VL: B1 VL with L28A
B6: hMAK195-AM15 (antibody, V domains shown)
VH: B1 VH with A53S, H58D
VL: B1 VL with L28A
B7: hMAK195-AM11 (antibody, V domains shown)
VH: B1 VH with T35N, W52A, S56F, H58D, Q100H
VL: B1 VL with L28A
B8: hMAK195-AM23 (antibody, V domains shown)
VH: B1 VH with S61D, G65S, V104L
VL: B1 VL with K24R, R54L, T56S
B9: hMAK195-AM18 (antibody, V domains shown)
VH: B1 VH with V104S
VL: B1 VL with L28A
B10: hMAK195-AM22 (antibody, V domains shown)
VH: B1 VH
VL: B1 VL with K24R, T56S, S93R
B11: hMAK195-AM21 (antibody, V domains shown)
VH: B1 VH
VL: B1 VL with K24R, T53A, S93K
B12: AE11-5 AM4 (antibody, V domains shown)
VH: EVQLVQSGAEVKKPGSSVKVSCKASGGTFSWYAISWVRQAPGQGLEWMGGITPILGSPIYAQKFQGRVTITADESTSTVYMELSSLRSEDTAVYYCARGVYYDPKRADYWGQGTLVTVSS
VL: EIVLTQSPDFQSVTPKEKVTITCRASQRIGSSLHWYQQKPDQSPKLLIKHASQSVSGVPSRFSGSGSGTDFTLTINSLEAEDAATYYCHQSRSSPPPTFGQGTKVEIK
notes: Full length IgG converted from scFv clone J703M1S3#30; Human IgG1 (hCg1,z,non-a,mut(234,235)) with human kappa; also called J703M1S3#30
B13: AE11-5 AM2 (antibody, V domains shown)
VH: B12 VH with S57A, P58A, I59N
VL: EIVLTQSPDFQSVTPKEKVTITCRASQSIGSTLHWYQQKPDQSPKLLIKHASQSNSGVPSRFSGSGSGTDFTLTINSLEAEDAATYYCHQSSSLPPPTFGQGTKVEI
notes: Full length IgG converted from scFv clone J703M1S3#13; Human IgG1 (hCg1,z,non-a,mut(234,235)) with human kappa; also called J703M1S3#13
B14: AE11-5 AM9 (antibody, V domains shown)
VH: B12 VH with V100I
VL: B12 VL with R28S, A51V, V55L, S91R, R92S, P96S
notes: Full length IgG converted from scFv clone J703M1S3#69; Human IgG1 (hCg1,z,non-a,mut(234,235)) with human kappa; also called J703M1S3#69
B15: AE11-5 AM5 (antibody, V domains shown)
VH: B12 VH with A33P, S57A, P58G, P104F
VL: B12 VL with R28S, V55T, R92S, P97S
notes: Full length IgG converted from scFv clone J703M1S3#33; Human IgG1 (hCg1,z,non-a,mut(234,235)) with human kappa; also called J703M1S3#33
B16: AE11-5 AM3 (antibody, V domains shown)
VH: B12 VH with S57T, P58A, I59N
VL: B12 VL with R28S, S32R, V55T, R92G, P97R
notes: Full length IgG converted from scFv clone J703M1S3#26; Human IgG1 (hCg1,z,non-a,mut(234,235)) with human kappa; also called J703M1S3#26
B17: AE11-5 AM8 (antibody, V domains shown)
VH: B12 VH with S57T, P104F
VL: B12 VL with R28T, V55I, R92S
notes: Full length IgG converted from scFv clone J703M1S3#38; Human IgG1 (hCg1,z,non-a,mut(234,235)) with human kappa; also called J703M1S3#38
B18: AE11-5 AM1 (antibody, V domains shown)
VH: B12 VH with I34T, P104H, K105R
VL: B12 VL with R28S, S31N, S32T, A51V, S91K, R92V, P96S
notes: Full length IgG converted from scFv clone J703M1S3#2; Heavy chain plasmid is pHybE-hCg1,z,non-a,mut(234,235), i.e. human IgG1 with mutations at 234 and 235; Light chain plasmid is pHybE-hCk, i.e. human kappa; also called J703M1S3#2
B19: AE11-5 AM10 (antibody, V domains shown)
VH: B12 VH with P104Y
VL: B12 VL with R28S, S32N, V55I, S91T, S93T, P97L
notes: Full length IgG converted from scFv clone J703M1S3#90; Human IgG1 (hCg1,z,non-a,mut(234,235)) with human kappa; also called J703M1S3#90
B20: AE11-5 AM6 (antibody, V domains shown)
VH: B12 VH with P58A, I59T, V100I
VL: B12 VL with R28T, V55I, S91T, R92S, S94L, P96T
notes: Full length IgG converted from scFv clone J703M1S3#35; Human IgG1 (hCg1,z,non-a,mut(234,235)) with human kappa; also called J703M1S3#35
B21: hMAK199-AM5 (antibody, V domains shown)
VH: EVQLVQSGAEVKKPGASVKVSCKASGYTFRNYGIIWVRQAPGQGLEWMGWINTYTGKPTYAQKFQGRVTMTTDTSTSTAYMELSSLRSEDTAVYFCARKLFTTVDVTDNAMDYWGQGTTVTVSS
VL: DIQMTQSPSSLSASVGDRVTITCRASQDISNYLNWYQQKPGKAPKLLIYYTSRLQSGVPSRFSGSGSGTDYTLTISSLQPEDFATYFCQQGNTWPPTFGQGTKLEIK
B22: hMAK199-AM9 (antibody, V domains shown)
VH: B21 VH with R30S, I35N, K57Q, T59S, F95Y, T102K, V104E, D105A, N109Y
VL: B21 VL with D28N, S30Y, Y32V, T51A, Y71F, W94M
B23: hMAK199-AM6 (antibody, V domains shown)
VH: B21 VH with R30N, I35N, L100F, F101R, T102N, D105A, N109Y
VL: B21 VL with S30Y, N31D, Y32V, T51A, Y71F, F87Y, N92I, W94L
B24: hMAK199-AM4 (antibody, V domains shown)
VH: B21 VH with R30N, F95Y, T102N, D105A
VL: B21 VL with S30E, Y71F, W94Q
B25: hMAK199-AM7 (antibody, V domains shown)
VH: B21 VH with I35T, V104M
VL: B21 VL
B26: hMAK199-AM2 (antibody, V domains shown)
VH: B21 VH with R30N, F64L, T102N
VL: B21 VL with T93S
B27: hMAK199-AM10 (antibody, V domains shown)
VH: B21 VH with R30N, T55S, V104M
VL: B21 VL with Y32F, W94Q
B28: hMAK199-AM3 (antibody, V domains shown)
VH: B21 VH with R30N, K57V, F95Y, T102N
VL: B21 VL with S30Y, W94Q

Tests used:
Rhesus/Macaque TNF [1] = biological target: Rhesus/Macaque TNF (rhesus/macaque, UniProt P48094 77-233); test: cell-based or functional assay
Rhesus/Macaque TNF (rhesus/macaque, UniProt P48094 77-233), sequence (P48094 77-233 limits assumed): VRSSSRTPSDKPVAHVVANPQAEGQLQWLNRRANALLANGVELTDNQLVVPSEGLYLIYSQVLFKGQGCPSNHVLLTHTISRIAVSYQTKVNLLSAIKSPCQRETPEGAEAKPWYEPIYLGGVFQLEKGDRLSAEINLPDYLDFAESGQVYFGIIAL

human TNF-α [2] = biological target: T1, human TNF-α (human, UniProt P01375 77-233, biotin label in the ELISA (site not stated); unlabelled in the L929 bioassay); test: ELISA; IgG captured on goat anti-human IgG-Fc, serially diluted biotinylated human TNF, streptavidin-HRP
T1 construct: also called hTNF; hTNF-α
T1 sequence (P01375 77-233 R107D limits assumed): as the sequence (P48094 77-233 limits assumed) above, with R31D, T44R, N72T, L138R counted along it
Protocol: (§1) The following protocol is used to characterize the binding of TNF antibodies to biotinylated human or cyno TNF by enzyme-linked immunosorbent assay (ELISA). An ELISA plate was coated with 50 μl per well of goat anti human IgG-Fc at 2 μg/ml, overnight at 4° C. The plate was washed 3 times with PBS/Tween. 50 μl Mab diluted to 1 μg/ml in PBS/0.1% BSA was added to appropriate wells and incubated for 1 hour at room temperature (RT). The plate was washed 3 times with PBS/Tween. 50 μl of serial diluted biotin-human TNF was added to appropriate wells and incubated for 1 hour at RT. The plate was washed 3 times with PBS/Tween. 50 μl of streptavidin-HRP diluted 1:10,000 in PBS/0.1% BSA was added to appropriate wells and incubated for 1 hour at RT. The plate was washed 3 times with PBS/Tween. 50 μl of TMB was added to appropriate wells and the reaction was allowed to proceed for 1 minute. The reaction was stopped with 50 μl/well 2N H₂SO₄ and the absorbance read at 450 nm.

Rhesus/Macaque TNF [3] = biological target: Rhesus/Macaque TNF (Rhesus/Macaque, UniProt P48094 77-233); test: cell-based or functional assay
Target sequence in this assay (P48094 77-233 limits assumed): as the sequence (P48094 77-233 limits assumed) above

human TNF-α [4] = biological target: T1, human TNF-α; test: cell-based or functional assay
cynomolgus monkey TNF = biological target: T2, cynomolgus monkey TNF (cynomolgus monkey, UniProt P79337 77-233, limits assumed, biotin label in the ELISA (site not stated)); test: ELISA; IgG captured on goat anti-human IgG-Fc, serially diluted biotinylated cyno TNF, streptavidin-HRP
T2 construct: also called cynoTNF; cyno TNF
T2 sequence (P79337 77-233 limits assumed): as the sequence (P48094 77-233 limits assumed) above, with L37V counted along it
Protocol: as §1

Rhesus/Macaque TNF [5] = biological target: Rhesus/Macaque TNF (Rhesus/Macaque, UniProt P48094 77-233); test: cell-based or functional assay; remark: listed apart in the source
Target sequence in this assay (P48094 77-233 limits assumed): as the sequence (P48094 77-233 limits assumed) above

rhesus TNF neutralization IC50 (L929 bioassay) (Rhesus/Macaque TNF [1]) [pM]	EC50 (human TNF-α [2]) [pM]	rhesus TNF neutralization IC50 (Rhesus/Macaque TNF [3]) [pM]	hu TNF neutralization IC50 (human TNF-α [4]) [pM]	other results	Binder
596					B1
4640					B2
557					B3
250					B4
1210					B5
> 150000					B6
> 25000					B7
2630					B8
441					B9
270					B10
90					B11
	18300	109	259	EC50 (cynomolgus monkey TNF): 750000 pM	B12
	522000	756	1240		B13
	16700	123	391	EC50 (cynomolgus monkey TNF): 5290 pM	B14
	17700	613	968	EC50 (cynomolgus monkey TNF): 2200 pM	B15
	1570	165	291	EC50 (cynomolgus monkey TNF): 1550 pM	B16
	250000	3040	1360	EC50 (cynomolgus monkey TNF): 58600 pM	B17
	1060	251	439	EC50 (cynomolgus monkey TNF): 2140 pM	B18
	980	140	678	EC50 (cynomolgus monkey TNF): 280 pM	B19
	1370	652	2030		B20
				rhesus TNF neutralization IC50 (Rhesus/Macaque TNF [5]): 20 pM	B21
				rhesus TNF neutralization IC50 (Rhesus/Macaque TNF [5]): 89 pM	B22
				rhesus TNF neutralization IC50 (Rhesus/Macaque TNF [5]): 4 pM	B23
				rhesus TNF neutralization IC50 (Rhesus/Macaque TNF [5]): 5 pM	B24
				rhesus TNF neutralization IC50 (Rhesus/Macaque TNF [5]): 51 pM	B25
				rhesus TNF neutralization IC50 (Rhesus/Macaque TNF [5]): 10 pM	B26
				rhesus TNF neutralization IC50 (Rhesus/Macaque TNF [5]): 34 pM	B27
				rhesus TNF neutralization IC50 (Rhesus/Macaque TNF [5]): 19 pM	B28
